These results are taken from publication PMC8565327, “A dominant-negative SOX18 mutant disrupts multiple regulatory layers essential to transcription factor activity” (Nucleic Acids Research, 2021).

The target in one data set is T1, SOX7-eGFP, Q9BT81.
T1 chain: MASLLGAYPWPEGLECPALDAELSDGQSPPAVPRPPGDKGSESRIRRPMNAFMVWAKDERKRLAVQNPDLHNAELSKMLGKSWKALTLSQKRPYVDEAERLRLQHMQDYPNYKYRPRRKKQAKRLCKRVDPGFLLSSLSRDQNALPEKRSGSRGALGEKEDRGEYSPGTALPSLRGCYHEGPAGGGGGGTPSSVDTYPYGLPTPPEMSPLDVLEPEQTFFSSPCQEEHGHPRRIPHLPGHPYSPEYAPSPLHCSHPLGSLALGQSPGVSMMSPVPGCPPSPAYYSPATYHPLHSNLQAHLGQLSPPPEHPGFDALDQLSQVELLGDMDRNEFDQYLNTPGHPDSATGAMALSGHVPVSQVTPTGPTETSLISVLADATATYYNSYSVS
Put plainly: cross-raster image correlation spectroscopy (cRICS); living HeLa cell nuclei, 37°C, transiently transfected; two colours (JF549 + JF646 on HaloTag, eGFP + JF646, or snap646 + JF549); fraction of molecules that move together. To be noted: other: cross-raster image correlation spectroscopy (cRICS).

Data set [1] concerns the molecule itself. Put plainly: number and brightness (N&B); living HeLa cell nuclei, 37°C; cells with low to medium expression, 1 μM JF549 Halo-tag dye; monomer brightness calibrated on HALO-SOX7.

B1: HALO-SOX18 (protein)
chain: MQRSPPGYGAQDDPPSRRDCAWAPGIGAAAEARGLPVTNVSPTSPASPSSLPRSPPRSPESGRYGFGRGERQTADELRIRRPMNAFMVWAKDERKRLAQQNPDLHNAVLSKMLGKAWKELNTAEKRPFVEEAERLRVQHLRDHPNYKYRPRRKKQARKVRRLEPGLLLPGLVQPSAPPEAFAAASGSARSFRELPTLGAEFDGLGLPTPERSPLDGLEPGEASFFPPPLAPEDCALRAFRAPYAPELARDPSFCYGAPLAEALRTAPPAAPLAGLYYGTLGTPGPFPNPLSPPPESPSLEGTEQLEPTADLWADVDLTEFDQYLNCSRTRPDATTLPYHVALAKLGPRAMSCPEESSLISALSDASSAVYYSACISG
As for B1, the percent heterodimer entry with SOX7-eGFP, Q9BT81 is “SOX7/SOX18 (18.5%)”.

B2: HALO-SOX18 (natural protein, UniProt P43680 1-377, looked up)
chain: B1 chain
modifications: JF549 and/or JF646 Halo-tag dye on the HaloTag
notes: SOX18 wild type from the plasmid pReceiver-M49(HaloTag-SOX18) of GeneCopoeia; In the functional row with MEF2C the protein was untagged-SOX18 from the same plasmid without the HaloTag; also called HaloTag-SOX18; pReceiver-M49(HaloTag-SOX18); source: HeLa, transiently transfected, in living cells
As a reminder, the stoichiometry N is the number of molecules, sites or subunits per partner or assembly. For the protein B2, the “stoichiometry N” value in data set [1] is 2.
